Values of other authors in article PMC12188314.

Biological target: Rab27A (Mus musculus) (UniProt Q9ERI2)
Sequence of UniProt Q9ERI2 (Q9ERI2 2-221): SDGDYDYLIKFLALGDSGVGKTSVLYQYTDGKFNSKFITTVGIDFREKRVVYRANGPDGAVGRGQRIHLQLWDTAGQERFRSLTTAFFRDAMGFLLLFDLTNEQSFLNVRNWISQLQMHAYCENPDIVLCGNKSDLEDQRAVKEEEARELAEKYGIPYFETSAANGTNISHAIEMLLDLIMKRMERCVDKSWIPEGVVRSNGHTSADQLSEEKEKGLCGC

Kd: 0.013 µM
Substance: Slp2-a SHD (from UniProt Q99N50)
